Measured values taken from patent US10377818B2, “Method of treating glioma” (The Board of Trustees of the Leland Stanford Junior …, priority 2015, dated 2019).

How the values were obtained:
Type in all cases: cell-based, human
[1] = system: Fos mRNA; assay: qPCR of Fos gene expression in pHGG cells; conditions: 50 nM NLGN3, 1 hour vs vehicle
Method: (§1) A) Signaling through the PI3K pathway increases in response to NLGN3. Representative Western blot illustrating increased phosphorylation of AKT in response to various concentrations of NLGN3 ranging from 0-50 nM. p-AKT is shown in top panel; total AKT is shown in the bottom panel. B) Quantification of the increased fold change of pAKT/AKT ratio in response to NLGN3 at various doses (oneway ANOVA, F=17.99, P<001; data shown as mean±SEM; *P<0.05, **P<0.01, ***P<0.001 by Tukey's post-hoc tests to further examine pairwise comparisons). Fold change is normalized to blank media (aCSF). (C) Fos mRNA expression increases after 1 hour exposure to […] 50 nM NLGN3 (data shown as mean±SEM; **P<0.01 by unpaired two-tailed Student's t-test). D) NLGN3 mRNA expression increases after 12 hour exposure to 50 nM NLGN3 vs. vehicle in SU-[…] cells. […]
After various cell treatments (described in extended experimental procedures), RNA was extracted from 500,000 SU-pcGBM2 or SU-[…] cells using TRIzol reagent. cDNA was generated using RT-PCR, and gene expression changes were further probed using quantitative PCR.
500,000 SU-pcGBM2 cells were exposed to either aCSF, 50 nM NLGN3 (Origene Technologies, Rockville), 500 nM BKM120 (SelleckChem, Houston, Tex.), 50 nM EGF (Shenandoah, Warwick, R.I.), or a combination of the above treatments. […] Differential expression was determined using the delta CT method. […]

[2] = system: SU-pcGBM2 cells; assay: EdU incorporation assay, proliferation index of pHGG cells (SU-pcGBM2)
[3] = system: PI3K pathway (phospho-AKT); assay: Western blot of phospho-AKT as indicator of PI3K pathway activity; conditions: recombinant NLGN3 0-50 nM, 1 hour
Method: as §1, with “cells. Data shown as mean±SEM; *P<0.05 by unpaired two-tailed Student's t-test.” for “cells.”
Endogenous protein levels were determined using Western blot analysis. […]
Briefly, in FIG. 5, panel A, cells were lysed after 1-hour exposure to 0 nM, 5 nM, 10 nM, or 50 nM recombinant NLGN3 (Origene Technologies, Rockville, Md.), using RIPA buffer and protease inhibitors. […] Protein concentration in the lysate was determined using a Bradford assay. […] Proteins were visualized using Clarity ECL Western Substrate (BioRad, Hercules, Calif.) and quantified using ImageJ.

[4] = system: MAPK pathway (phospho-ERK1/2 T202/Y204); assay: Western blot of phospho-ERK1/2 as indicator of MAPK pathway activation; conditions: NLGN3 50 nM vs aCSF
Method: A) Western blot analysis of phosphorylated ERK1/2 (Thr202/Tyr204) and total ERK1/2 in SU-pcBGM2 cells after exposure to either aCSF or NLGN3 (50 nM). […] B) Phosphorylated ERK1/2 levels were normalized to total ERK1/2 levels. […] All experiments performed in three biological replicates and analyzed by unpaired two-way Student's t-test. Data presented as mean±SEM. **P<0.01, ***P<0.001. n.s. indicates P>0.05.
(§2) Endogenous protein levels were determined using Western blot analysis. Briefly, after various treatments, 400,000 SU-pcGBM2 cells were lysed and loaded onto SDS-PAGE gels. Proteins were separated with gel electrophoresis and transferred to a PVDF membrane. Proteins were then probed for various antibodies as described in extended experimental procedures.

[5] = system: mTOR (phospho-4E-BP1 T37/46); assay: Western blot of phospho-4E-BP1 as reporter of mTOR activity; conditions: 50 nM NLGN3 vs aCSF
Method: Top panel, 4E-P1^T37/46; bottom panel, total 4E-BP1. B) Quantification of p4E-BP1T37/46/4E-BP1 ratio fold change after NLGN3 exposure normalized to aCSF control (unpaired two-tailed Student's t-test). C) 50 nM NLGN3-induced increase in SU-pcGBM2 proliferation index (EdU assay) is blocked by inhibition of PI3K by BKM120 (100 nM). […] All experiments performed in n=3 biological replicates. Data shown as mean±SEM. (See also FIG. 34, Table in FIG. 18.)
as §2

B1: NLGN3: Recombinant full-length neuroligin-3 (Origene), tested as glioma mitogen (protein, listed as Mus musculus)
chain: MWLQPSLSLSPTPTVGRSLCLTLGFLSLVLRASTQAPAPTVNTHFGKLRGARVPLPSEILGPVDQYLGVPYAAPPIGEKRFLPPEPPPSWSGIRNATHFPPVCPQNIHTAVPEVMLPVWFTANLDIVATYIQEPNEDCLYLNVYVPTEDGSGAKKQGEDLADNDGDEDEDIRDSGAKPVMVYIHGGSYMEGTGNMIDGSVLASYGNVIVITLNYRVGVLGFLSTGDQAAKGNYGLLDQIQALRWVSENIAFFGGDPRRITVFGSGIGASCVSLLTLSHHSEGLFQRAIIQSGSALSSWAVNYQPVKYTSLLADKVGCNVLDTVDMVDCLRQKSAKELVEQDIQPARYHVAFGPVIDGDVIPDDPEILMEQGEFLNYDIMLGVNQGEGLKFVEGVVDPEDGVSGTDFDYSVSNFVDNLYGYPEGKDTLRETIKFMYTDWADRDNPETRRKTLVALFTDHQWVEPSVVTADLHARYGSPTYFYAFYHHCQSLMKPAWSDAAHGDEVPYVFGVPMVGPTDLFPCNFSKNDVMLSAVVMTYWTNFAKTGDPNKPVPQDTKFIHTKANRFEEVAWSKYNPRDQLYLHIGLKPRVRDHYRATKVAFWKHLVPHLYNLHDMFHYTSTTTKVPPPDTTHSSHITRRPNGKTWSTKRPAISPAYSNENAPGSWNGDQDAGPLLVENPRDYSTELSVTIAVGASLLFLNVLAFAALYYRKDKRRQEPLRQPSPQRGTGAPELGTAPEEELAALQLGPTHHECEAGPPHDTLRLTALPDYTLTLRRSPDDIPLMTPNTITMIPNSLVGLQTLHPYNTFAAGFNSTGLPHSHSTTRV
Fos gene expression [1]: upregulation of Fos gene expression | proliferation index ([2]; pHGG cells exposed to 50 nM NLGN3, 24 h, EdU): 0.40±0.01 | effect on proliferation index, dose curve ([2]; recombinant NLGN3 0-100 nM, 24 hours): promotes proliferation, matching the mitogenic effect of active CM at low nanomolar concentrations | effect on proliferation index relative to aCSF control ([2]; recombinant candidate proteins at 100 nM for 24 hours): promote glioma cell proliferation | phospho-AKT levels relative to total AKT [3]: increased phospho-AKT levels relative to total AKT in a dose-dependent manner | phospho-ERK1/2 T202/Y204 [4]: did not reveal upregulation | phospho-4E-BP1 T37/46 relative to total 4E-BP1 [5]: increase in phospho-4E-BP1^T37/46 relative to total 4E-BP1
